Measurements as given in the Immune Epitope Database (IEDB).

Columns and labels:
HLA-A*02:01 [1] = assay: IEDB peptide-MHC binding, cellular MHC/competitive/fluorescence; ≥ and ≤ were set here for values at or beyond the usual limits of such assays; settings: source organism: Mycobacterium tuberculosis
HLA-A*01:01 = assay: IEDB peptide-MHC binding, purified MHC/direct/fluorescence; filed as Kd, often an IC50 or EC50 that approximates it; ≥ and ≤ were set here for values at or beyond the usual limits of such assays
HLA-A*02:12 = assay: as above; settings: source organism: Vibrio cholerae V52
HLA-A*02:19 = assay: as above; settings: source organism: Vibrio cholerae V52
HLA-A*11:01 = assay: as above; settings: source organism: Vibrio cholerae
HLA-A*23:01 = assay: as above; settings: source organism: Vibrio cholerae V52
HLA-A*24:03 = assay: as above; settings: source organism: Vibrio cholerae V52
HLA-A*29:02 = assay: as above; settings: source organism: Vibrio cholerae V52
HLA-A*30:01 [2] = assay: as above; settings: source organism: Vibrio cholerae V52
HLA-A*69:01 = assay: as above
HLA-B*15:01 = assay: as above
HLA-B*15:09 = assay: as above; settings: source organism: Vibrio cholerae V52
HLA-B*18:01 = assay: as above
HLA-B*27:05 = assay: as above
HLA-B*38:01 = assay: as above
HLA-B*40:01 = assay: as above
HLA-B*44:02 = assay: as above; settings: source organism: Vibrio cholerae V52
HLA-B*46:01 = assay: as above
HLA-B*48:01 = assay: as above
HLA-B*51:01 = assay: as above; settings: source organism: Vibrio cholerae V52
HLA-B*57:01 = assay: as above
HLA-B*58:01 = assay: as above
HLA-A*02:01 [3] = assay: IEDB peptide-MHC binding, purified MHC/competitive/fluorescence; filed as Kd, often an IC50 or EC50 that approximates it; ≥ and ≤ were set here for values at or beyond the usual limits of such assays; settings: source organism: Vibrio cholerae MO10
HLA-A*02:03 = assay: as above
HLA-A*03:01 = assay: as above; settings: source organism: Vibrio cholerae MO10
HLA-A*31:01 = assay: as above; settings: source organism: Vibrio cholerae MO10
HLA-B*08:01 [4] = assay: as above; settings: source organism: Vibrio cholerae MO10
HLA-B*15:17 [5] = assay: as above; settings: source organism: Vibrio cholerae MO10
HLA-B*39:01 [6] = assay: as above; settings: source organism: Vibrio cholerae MO10
HLA-C*06:02 = assay: IEDB peptide-MHC binding, purified MHC/direct/fluorescence; filed as Kd, often an IC50 or EC50 that approximates it; ≥ and ≤ were set here for values at or beyond the usual limits of such assays
HLA-A*24:02 [7] = assay: IEDB peptide-MHC binding, purified MHC/competitive/fluorescence; filed as Kd, often an IC50 or EC50 that approximates it; ≥ and ≤ were set here for values at or beyond the usual limits of such assays
HLA-C*04:01 [8] = assay: IEDB peptide-MHC binding, purified MHC/direct/fluorescence; filed as Kd, often an IC50 or EC50 that approximates it; ≥ and ≤ were set here for values at or beyond the usual limits of such assays
HLA-B*15:42 = assay: IEDB peptide-MHC binding, purified MHC/competitive/fluorescence; filed as Kd, often an IC50 or EC50 that approximates it; ≥ and ≤ were set here for values at or beyond the usual limits of such assays; settings: source organism: human gammaherpesvirus 4
HLA-B*27:20 = assay: as above; settings: source organism: human gammaherpesvirus 4
HLA-B*45:06 = assay: as above; settings: source organism: human gammaherpesvirus 4
HLA-C*04:01 [9] = assay: as above; settings: source organism: human gammaherpesvirus 4
HLA-C*14:02 = assay: IEDB peptide-MHC binding, purified MHC/direct/fluorescence; filed as Kd, often an IC50 or EC50 that approximates it; ≥ and ≤ were set here for values at or beyond the usual limits of such assays; settings: source organism: Giardia lamblia ATCC 50803
HLA-C*15:02 = assay: as above; settings: source organism: Giardia lamblia ATCC 50803
HLA-A*02:01 [10] = assay: as above; settings: source organism: Camelpox virus M-96
HLA-A*26:01 = assay: as above; settings: source organism: Variola virus
HLA-A*68:02 = assay: as above; settings: source organism: Camelpox virus M-96
HLA-B*07:02 = assay: as above; settings: source organism: Camelpox virus M-96
HLA-B*08:01 [11] = assay: as above; settings: source organism: Variola virus
HLA-B*08:02 = assay: as above; settings: source organism: Variola virus
HLA-B*15:17 [12] = assay: as above; settings: source organism: Camelpox virus M-96
HLA-B*39:01 [13] = assay: as above; settings: source organism: Camelpox virus M-96
HLA-A*30:01 [14] = assay: IEDB peptide-MHC binding, purified MHC/competitive/fluorescence; filed as Kd, often an IC50 or EC50 that approximates it; ≥ and ≤ were set here for values at or beyond the usual limits of such assays; settings: source organism: Vaccinia virus WR
HLA-B*35:01 = assay: as above; settings: source organism: Vaccinia virus WR
HLA-A*24:02 [15] = assay: IEDB peptide-MHC binding, purified MHC/direct/fluorescence; filed as Kd, often an IC50 or EC50 that approximates it; ≥ and ≤ were set here for values at or beyond the usual limits of such assays; settings: source organism: Giardia lamblia ATCC 50803
[16] = source organism: Vibrio cholerae
[17] = source organism: Vibrio cholerae V52
[18] = source organism: Bacillus anthracis str. A0488
[19] = source organism: Giardia lamblia ATCC 50803
[20] = source organism: Camelpox virus M-96

AQLLTEFAI gave an IC50 (HLA-A*02:01 [1]) of 25 µM.
For EVNAHIHTM, the Kd (HLA-A*01:01; [16]) was no less than 20 µM, the Kd (HLA-A*02:12) was no less than 20 µM and the Kd (HLA-A*02:19) was no less than 20 µM. The Kd (HLA-A*11:01) was no less than 20 µM, the Kd (HLA-A*23:01) was no less than 20 µM and the Kd (HLA-A*24:03) was no less than 20 µM. For the same sequence, the Kd (HLA-A*29:02) was no less than 20 µM, the Kd (HLA-A*30:01 [2]) was no less than 20 µM and the Kd (HLA-A*69:01; [16]) was no more than 0.001 µM. It also gave a Kd (HLA-B*15:01; [17]) of no less than 20 µM, a Kd (HLA-B*15:09) of no less than 20 µM and a Kd (HLA-B*18:01; [17]) of 1.84 µM. It also gave a Kd (HLA-B*27:05; [16]) of no less than 20 µM, a Kd (HLA-B*38:01; [17]) of no less than 20 µM and a Kd (HLA-B*40:01; [16]) of no less than 20 µM. For the same sequence, the Kd (HLA-B*44:02) was no less than 20 µM, the Kd (HLA-B*46:01; [16]) was no less than 20 µM and the Kd (HLA-B*48:01; [16]) was no less than 20 µM. The Kd (HLA-B*51:01) was no less than 20 µM, the Kd (HLA-B*57:01; [16]) was no less than 20 µM and the Kd (HLA-B*58:01; [16]) was no less than 20 µM. It also gave a Kd (HLA-A*02:01 [3]) of no less than 20 µM, a Kd (HLA-A*02:03; source organism: Vibrio cholerae MO10) of no less than 20 µM and a Kd (HLA-A*03:01) of no less than 20 µM. For the same sequence, the Kd (HLA-A*31:01) was no less than 20 µM, the Kd (HLA-B*08:01 [4]) was no less than 20 µM and the Kd (HLA-B*15:17 [5]) was no less than 20 µM. The Kd (HLA-B*39:01 [6]) was 1.33 µM.
In the case of IYPFHVQKI, the Kd (HLA-C*06:02; [18]) is reported as 0.816 µM and the Kd (HLA-A*24:02 [7]; [18]) is reported as no more than 0.0001 µM.
KYFIPVIEI showed a Kd (HLA-C*04:01 [8]; source organism: Homo sapiens) of no less than 20 µM.
In the case of RRYRRIYDL, the Kd (HLA-C*06:02; source organism: human gammaherpesvirus 4) is reported as 0.017 µM, the Kd (HLA-B*15:42) is reported as no less than 5 µM and the Kd (HLA-B*27:20) is reported as no more than 0.0001 µM. For the same sequence, the Kd (HLA-B*45:06) was no less than 5 µM and the Kd (HLA-C*04:01 [9]) was no less than 5 µM.
RYYLSFFHI was tested, and the Kd (HLA-C*06:02; [19]) was no less than 20 µM, the Kd (HLA-C*14:02) was 0.03 µM and the Kd (HLA-C*15:02) was no less than 20 µM. The Kd (HLA-A*24:02 [7]; [19]) was 0.0014 µM.
TESDAIRTL showed a Kd (HLA-A*01:01; [20]) of no less than 20 µM, a Kd (HLA-A*02:01 [10]) of no less than 20 µM and a Kd (HLA-A*26:01) of no less than 20 µM. The Kd (HLA-A*68:02) was no less than 20 µM, the Kd (HLA-A*69:01; [20]) was no less than 20 µM and the Kd (HLA-B*07:02) was no less than 20 µM. The Kd (HLA-B*08:01 [11]) was no less than 20 µM, the Kd (HLA-B*08:02) was no less than 20 µM and the Kd (HLA-B*15:01; [20]) was no less than 20 µM. It also gave a Kd (HLA-B*15:17 [12]) of no less than 20 µM, a Kd (HLA-B*18:01; [20]) of 0.017 µM and a Kd (HLA-B*27:05; [20]) of no less than 20 µM. The Kd (HLA-B*38:01; source organism: Variola virus) was 3.77 µM, the Kd (HLA-B*39:01 [13]) was 0.118 µM and the Kd (HLA-B*40:01; [20]) was 0.0225 µM. For the same sequence, the Kd (HLA-B*46:01; [20]) was no less than 20 µM, the Kd (HLA-B*48:01; [20]) was no less than 20 µM and the Kd (HLA-B*57:01; [20]) was no less than 20 µM. For the same sequence, the Kd (HLA-B*58:01; [20]) was no less than 20 µM, the Kd (HLA-A*02:03; source organism: Vaccinia virus WR) was no less than 20 µM and the Kd (HLA-A*30:01 [14]) was no less than 20 µM. It also gave a Kd (HLA-B*35:01) of 3.71 µM.
In the case of YWLNTPFLV, the Kd (HLA-A*24:02 [15]) is reported as no more than 0.001 µM and the Kd (HLA-C*04:01 [8]; [19]) is reported as no less than 20 µM.
